Test results reported in the supplement of paper PMC9732359.
± gives the uncertainty stated by the source.

Assay: protein stability index of a GFP-peptide fusion (yeast GPS) (PSI 1-4); higher = more stable; sorted into four equal gates, so the index is relative within each strain
How it was run: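 Each library plasmid carries Cherry plus GFP with a tiled 17-residue yeast protein peptide fused downstream, and the pooled library was carried in yeast. Mid-log cultures in leucine-free medium were sorted into four equal gates by GFP/Cherry ratio. Reads from Illumina sequencing of PCR-amplified plasmids from each gate were assigned to strains by barcodes. Per peptide, the protein stability index was computed as the summed products of gate read frequency and gate number.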

Sequence	protein stability index (doa10∆)	protein stability index (pdr5∆)	protein stability index (san1∆)	protein stability index (ubr1∆)
PQMFLNQQAQARQQVAQ [GAL11]	2.66 ± 0.15	2.46 ± 0.13	1.9 ± 0.27	1.7 ± 0.091
PQTMEHYKQQIAVLIEL [YCS4]	3.01 ± 0.083	3.05 ± 0.12	2.92 ± 0.11	2.52 ± 0.066
PRETIPFLHLRKKTPAG [FAS2]	2.73 ± 0.13	2.43 ± 0.1	2.63 ± 0.13	2.78 ± 0.094
PRGLNSARKLRVHRRNN [RPS23A]	2.39 ± 0.088	3.06 ± 0.079	2.96 ± 0.096	2.8 ± 0.073
PRINNISAEDRADTDLA [SNF2]	1.94 ± 0.15	2.51 ± 0.14	3.02 ± 0.084	2.86 ± 0.086
PRQTKKAKAQAQAQAQA [PGD1]	3.2 ± 0.077	3.46 ± 0.056	3.22 ± 0.036	3.06 ± 0.059
PRSDDLEATWNFIEPGI [CDC53]	3.04 ± 0.15	3.29 ± 0.13	3.15 ± 0.096	3.02 ± 0.11
PRVSNQSNEDTFLPSYM [RRI2]	3.07 ± 0.087	3.05 ± 0.09	3.14 ± 0.089	3.44 ± 0.067
PSEFHCLQDALDAIDDF [SSN2]	3.14 ± 0.1	3.16 ± 0.067	3.12 ± 0.05	3.09 ± 0.097
PSIPLVIIRRLKTRDWI [POP1]	2.72 ± 0.1	1.69 ± 0.073	2.86 ± 0.12	2.53 ± 0.081
PSKGQSLSKISQAFDIV [RPP1]	3.25 ± 0.095	3.19 ± 0.085	2.96 ± 0.11	3.2 ± 0.085
PSLKDSSSNGGGSAKPS [RPC53]	2.91 ± 0.18	2.82 ± 0.14	2.7 ± 0.27	2.93 ± 0.15
PSLNKTINGKVNGRTKS [GAL11]	3.06 ± 0.14	3.07 ± 0.13	2.98 ± 0.14	3.11 ± 0.14
PSNFEINAEEIVDFTLP [PRP8]	2.91 ± 0.083	3.18 ± 0.082	3 ± 0.064	3.02 ± 0.049
PSNSTTTLHGPGFQLPN [SRB8]	3 ± 0.1	2.85 ± 0.096	2.71 ± 0.066	2.91 ± 0.058
PSPYKTTVYRYSAAKKI [YAR002W/NUP60]	1.69 ± 0.051	1.98 ± 0.05	1.49 ± 0.069	1.67 ± 0.042
PSRTRETATSERNASEV [GRR1]	3.32 ± 0.15	3 ± 0.12	2.86 ± 0.091	2.84 ± 0.14
PSSLNSDKIPYVAPTKK [SRB4]	2.24 ± 0.073	2.59 ± 0.1	2.15 ± 0.086	2.09 ± 0.063
PSTGSNLQQQQQQQIQV [YGR119C/NUP57]		2.55 ± 0.19		
PSTRCKLKLLRMERIKD [RPT2]	1.6 ± 0.045	1.68 ± 0.056	1.88 ± 0.089	1.76 ± 0.064
PSVKRQKMAELEAARSE [PRP8]	3.31 ± 0.1	3.26 ± 0.075	3.31 ± 0.074	3.28 ± 0.077
PTHIWNAKRSHMMKRWG [POP1]	2.35 ± 0.075	2.24 ± 0.068	1.98 ± 0.12	2.26 ± 0.067
PTITLDDVYRPAAESKI [SNF5]	3.13 ± 0.068	3.11 ± 0.071	3.02 ± 0.09	2.98 ± 0.068
PTKTLTTKERKKSRLGN [PRP8]	2.33 ± 0.079	2.26 ± 0.072	2.91 ± 0.094	2.62 ± 0.056
PTLPTNHNKTKLLKSLK [PRP8]	2.33 ± 0.07	1.6 ± 0.056	1.82 ± 0.076	2.41 ± 0.057
PTNCPLRQFKTCPVEVI [BRR2]	3 ± 0.093	3.17 ± 0.09	3.33 ± 0.063	2.9 ± 0.066
PTQITQYTQRLSKLEKA [SRP68]	1.75 ± 0.06	2.08 ± 0.045	2.06 ± 0.079	2.48 ± 0.045

Sequence	protein stability index (doa10∆)	protein stability index (pdr5∆)	protein stability index (san1∆)	protein stability index (ubr1∆)
PTSPAYSPTSPSYSPTS [RPO21]	2.89 ± 0.051	2.86 ± 0.045	2.73 ± 0.037	2.9 ± 0.035
PTVSLTINLDRFMKGRR [RPC82]	2.38 ± 0.083	2.48 ± 0.06	2.62 ± 0.062	2.63 ± 0.081
PVRALIVQAKEPNLAAQ [ECM29]	2.14 ± 0.11	2.6 ± 0.08	2.51 ± 0.092	2.64 ± 0.059
PVSCIIQNDEEYDTPAL [PRP8]	1.79 ± 0.1	2.73 ± 0.077	1.92 ± 0.093	1.22 ± 0.086
PVSTASYRLLPQINILQ [RPC40]	1.61 ± 0.053	1.66 ± 0.05	1.63 ± 0.07	1.97 ± 0.051
PVSVSRIARALKQEGAA [RPL18A]	3.36 ± 0.22	2.83 ± 0.11	2.96 ± 0.12	3.3 ± 0.057
PVVQVGIFIKILNDSLI [IRR1]	1.5 ± 0.052	1.49 ± 0.046	1.86 ± 0.067	1.97 ± 0.038
PVVRAPTVKYNRKVRAG [RPL13A]	1.22 ± 0.1	2.15 ± 0.14	1.98 ± 0.18	1.49 ± 0.11
PVYTAQWSATWIAMRRE [PRP8]	1.68 ± 0.079	1.96 ± 0.063	1.97 ± 0.089	1.9 ± 0.067
PYAVLSQFYELRDREDW [YJR042W/NUP85]	2.16 ± 0.16		2.31 ± 0.21	2.71 ± 0.18
PYLPKHYLVLLVAKFLY [YJR042W/NUP85]	1.3 ± 0.084	1.28 ± 0.06	1.16 ± 0.15	1.21 ± 0.052
PYMPYYYYYHPMNAPTP [DSN1]	2.52 ± 0.043	2.71 ± 0.043	2.64 ± 0.045	2.69 ± 0.032
PYNLNLFPNELYNVMGI [RPC31]	2.12 ± 0.061	2.52 ± 0.092	2.71 ± 0.086	2.38 ± 0.12
QALRVLRLKPGRKYTTL [RPL16B]	2.34 ± 0.055	1.98 ± 0.051	2.37 ± 0.057	2.73 ± 0.048
QANIQLYSIREDYELSP [PRE1]	2.96 ± 0.1	2.82 ± 0.093	3.01 ± 0.074	3.46 ± 0.11
QANSNLTLLERKWVIFI [NUT1]	1.85 ± 0.055	1.92 ± 0.044	1.67 ± 0.094	2.19 ± 0.061
QAPSELELQVAKTFIDL [RPS7B]	3.06 ± 0.054	3.13 ± 0.04	2.89 ± 0.072	2.99 ± 0.046
QAQLRIDDKTQNDELTM [DIS3]	2.42 ± 0.085	2.6 ± 0.07	2.5 ± 0.073	2.62 ± 0.088
QDDADPMVSVMKMDKSP [RPT2]	1.16 ± 0.065	1.27 ± 0.079	1.29 ± 0.26	1.52 ± 0.073
QDEAELVEEKTPGLTFN [RPC82]		3.62 ± 0.29		3.35 ± 0.12
QDGGVTPYSNESGLVNA [RPO21]	2.68 ± 0.055	2.69 ± 0.065	2.63 ± 0.058	2.6 ± 0.068
QDLPKINDKRANLMLVM [SRB4]	1.91 ± 0.073	1.88 ± 0.068	1.83 ± 0.14	1.73 ± 0.063
QDLSRNTLGKGQNCLDI [SNU114]	3.35 ± 0.12	3.28 ± 0.12	3.28 ± 0.16	3.61 ± 0.15
QDNKKIYVHVRRSTPFS [ESC2]	2.34 ± 0.049	2.49 ± 0.049	2.61 ± 0.049	2.64 ± 0.04
QDVIKVLYQSNATHDED [SWP82]	2.91 ± 0.043	2.89 ± 0.04	2.69 ± 0.04	2.881 ± 0.028
QEDELDEGTALSRLGLK [RPB10]	3.41 ± 0.073	3.38 ± 0.086	3.5 ± 0.058	3.06 ± 0.079
